Measurements taken from patent US20250011363A1, “OPTIMIZED SHORTENED PEPTIDE THAT BINDS TO ACETYLCHOLINE RECEPTOR, AND USE THEREOF” (SKINMED CO., LTD., priority 2021, published 2025).

The binders below were run against acetylcholine receptor (assay: SPR, AchR on chip, peptide 10 uM).
KLLLK [5mer-514] gave a Binding affinity (RU) of 52 RU. RQYRR [5mer-215] showed a Binding affinity (RU) of 79 RU. With RGQRK [5mer-515] the Binding affinity (RU) was 56 RU. With KWVRR [5mer-216] the Binding affinity (RU) was 56 RU. With KWQTR [5mer-516] the Binding affinity (RU) was 83 RU. KLQRR [5mer-217] was tested, and the Binding affinity (RU) was 72 RU. KGYTR [5mer-517] was tested, and the Binding affinity (RU) was 70 RU. KVQYK [5mer-218] was tested, and the Binding affinity (RU) was 80 RU. For RVYYR [5mer-518], the Binding affinity (RU) was 87 RU. Binder KQYTR [5mer-219] has a Binding affinity (RU) of 55 RU. In the case of RLYSK [5mer-519], the Binding affinity (RU) is reported as 72 RU. KRILR [5mer-220] was tested, and the Binding affinity (RU) was 81 RU. RVLLK [5mer-520] showed a Binding affinity (RU) of 86 RU. Binder RGRTR [5mer-221] has a Binding affinity (RU) of 58 RU. Work on KRFRK [5mer-521] yielded a Binding affinity (RU) of 78 RU. KWLLR [5mer-222] gave a Binding affinity (RU) of 86 RU. RLVYR [5mer-522] gave a Binding affinity (RU) of 78 RU. In the case of KQVRK [5mer-223], the Binding affinity (RU) is reported as 61 RU. Binder KQFQK [5mer-523] has a Binding affinity (RU) of 84 RU. RLQRR [5mer-224] gave a Binding affinity (RU) of 67 RU. For RRICR [5mer-524], the Binding affinity (RU) was 83 RU. KRQQK [5mer-225] gave a Binding affinity (RU) of 51 RU. KQRYK [5mer-525] gave a Binding affinity (RU) of 51 RU. Binder RVQCK [5mer-1] has a Binding affinity (RU) of 54 RU. Binder RRYTR [5mer-226] has a Binding affinity (RU) of 60 RU. For KQFSR [5mer-526], the Binding affinity (RU) was 54 RU. RRQQR [5mer-227] was tested, and the Binding affinity (RU) was 84 RU. KSVQR [5mer-527] was tested, and the Binding affinity (RU) was 70 RU. Work on KRFLK [5mer-228] yielded a Binding affinity (RU) of 53 RU. RVLLR [5mer-528] was tested, and the Binding affinity (RU) was 50 RU. For KGLTR [5mer-229], the Binding affinity (RU) was 84 RU. In the case of RVQSR [5mer-529], the Binding affinity (RU) is reported as 84 RU. In the case of KVLCR [5mer-230], the Binding affinity (RU) is reported as 67 RU. Work on RWRRR [5mer-530] yielded a Binding affinity (RU) of 80 RU. For KWIRK [5mer-301], the Binding affinity (RU) was 64 RU. With KGLLK [5mer-231] the Binding affinity (RU) was 60 RU. In the case of KRQSR [5mer-531], the Binding affinity (RU) is reported as 65 RU. In the case of KWYTR [5mer-232], the Binding affinity (RU) is reported as 71 RU. In the case of KQICK [5mer-532], the Binding affinity (RU) is reported as 75 RU. RVYYK [5mer-233] gave a Binding affinity (RU) of 84 RU. RLVYK [5mer-533] was tested, and the Binding affinity (RU) was 84 RU. RQYCR [5mer-234] gave a Binding affinity (RU) of 62 RU. RRQLR [5mer-534] gave a Binding affinity (RU) of 50 RU. For KGYSK [5mer-235], the Binding affinity (RU) was 70 RU. For KSLLR [5mer-535], the Binding affinity (RU) was 70 RU. Work on KRISR [5mer-2] yielded a Binding affinity (RU) of 80 RU. With KRRCK [5mer-236] the Binding affinity (RU) was 81 RU. RLITK [5mer-536] gave a Binding affinity (RU) of 78 RU. RGLRK [5mer-237] was tested, and the Binding affinity (RU) was 77 RU. RLRLR [5mer-537] gave a Binding affinity (RU) of 59 RU. Work on KQVLK [5mer-238] yielded a Binding affinity (RU) of 58 RU. Binder KQQQR [5mer-538] has a Binding affinity (RU) of 72 RU. For KRLYR [5mer-239], the Binding affinity (RU) was 61 RU. For RVVTR [5mer-539], the Binding affinity (RU) was 70 RU. KWRYR [5mer-240] was tested, and the Binding affinity (RU) was 51 RU. With RQFYR [5mer-540] the Binding affinity (RU) was 74 RU. In the case of RRILK [5mer-302], the Binding affinity (RU) is reported as 70 RU. For KVRCR [5mer-241], the Binding affinity (RU) was 51 RU. KVFLK [5mer-541] showed a Binding affinity (RU) of 80 RU. Work on RGYTK [5mer-242] yielded a Binding affinity (RU) of 64 RU. In the case of KRYTR [5mer-542], the Binding affinity (RU) is reported as 85 RU. In the case of KLLSK [5mer-243], the Binding affinity (RU) is reported as 51 RU. RLRLK [5mer-543] was tested, and the Binding affinity (RU) was 65 RU. Work on KSVSK [5mer-244] yielded a Binding affinity (RU) of 78 RU. Binder RLQLR [5mer-544] has a Binding affinity (RU) of 63 RU. RQRSK [5mer-245] gave a Binding affinity (RU) of 62 RU. KGQYR [5mer-545] gave a Binding affinity (RU) of 80 RU. Work on KRVLK [5mer-3] yielded a Binding affinity (RU) of 66 RU. Binder KSFTR [5mer-246] has a Binding affinity (RU) of 60 RU. With KVVLK [5mer-546] the Binding affinity (RU) was 65 RU. RWYCR [5mer-247] was tested, and the Binding affinity (RU) was 80 RU. KQVTK [5mer-547] showed a Binding affinity (RU) of 77 RU. With RWYLK [5mer-248] the Binding affinity (RU) was 63 RU. KWLCK [5mer-548] showed a Binding affinity (RU) of 60 RU. Binder KGRYR [5mer-303] has a Binding affinity (RU) of 87 RU. KRFLR [5mer-4] showed a Binding affinity (RU) of 58 RU. RSVRK [5mer-304] gave a Binding affinity (RU) of 76 RU. With KLFLR [5mer-5] the Binding affinity (RU) was 54 RU. Binder KRICK [5mer-305] has a Binding affinity (RU) of 72 RU.
